Assay results taken from paper PMC5942590.
Where two headings read alike, the source gives them in different places.

What was measured:
[1] = biological target: HSV-1 glycoprotein B construct gBΔ71 (residues 72-904) (Herpes Simplex Virus type 1 (HSV-1)) (UniProt P06437); assay: crystal structure
[2] = biological target: HSV-1 glycoprotein B construct gBΔ71 (residues 72-904) (Herpes Simplex Virus type 1 (HSV-1)) (UniProt P06437); assay: crystal structure; remark: listed apart in the source

## HSV-1 glycoprotein B construct gBΔ71 (residues 72-904) (from UniProt P06437 72-904) (natural protein)
[1]
  stoichiometry N: 3
[2]
  stoichiometry N: 3
